For one substance, fold change results are on record in article PMC11322666.

The experiment deals with UPF3B (UniProt Q9BZI7). The experiment is described as follows: co-IP of IRE1α S724 mutants. To be noted: reference: wild type; sites S724.

With “IRE1α (inositol-requiring enzyme-1α) (from UniProt O75460) S724A”, the fold change result is reported as “stronger”.
